Data from patent US7851592B2, “Compositions and methods for inhibiting G2 cell cycle arrest and sensitizing cells to DNA damaging agents” (CanBas Co. Ltd., priority 1999, dated 2010).

How the values were obtained:
[1] = target: human Chk2 kinase (Homo sapiens, UniProt O96017); assay: In vitro phosphorylation (kination) of membrane-immobilized peptides by human Chk2 kinase (Gst-Chk2); assay type: biochemical; design: key to phosphorylation signal by human Chk2 kinase (graded) / in vitro phosphorylation by human Chk2 kinase (graded signal): a “+++” indicates the peptide was relatively highly phosphorylated; a “++” indicates the peptide was relatively less phosphorylated; a “+” indicates the peptide was detectably significantly phosphorylated over negative control; no indication indicates that a peptide was not significantly phosphorylated over negative control; settings: for in vitro phosphorylation by human Chk2 kinase (graded signal) / phosphorylation signal by human Chk2 kinase (graded): γ-33P-ATP, RT 1 hr; for in vitro phosphorylation by human Chk2 kinase (graded signal): image analyzer signal graded −; for phosphorylation by human Chk2 kinase (in words) / phosphorylation signal by human Chk2 kinase (graded): peptide on membrane, Gst-Chk2
Chain of human Chk2 kinase (O96017 whole entry): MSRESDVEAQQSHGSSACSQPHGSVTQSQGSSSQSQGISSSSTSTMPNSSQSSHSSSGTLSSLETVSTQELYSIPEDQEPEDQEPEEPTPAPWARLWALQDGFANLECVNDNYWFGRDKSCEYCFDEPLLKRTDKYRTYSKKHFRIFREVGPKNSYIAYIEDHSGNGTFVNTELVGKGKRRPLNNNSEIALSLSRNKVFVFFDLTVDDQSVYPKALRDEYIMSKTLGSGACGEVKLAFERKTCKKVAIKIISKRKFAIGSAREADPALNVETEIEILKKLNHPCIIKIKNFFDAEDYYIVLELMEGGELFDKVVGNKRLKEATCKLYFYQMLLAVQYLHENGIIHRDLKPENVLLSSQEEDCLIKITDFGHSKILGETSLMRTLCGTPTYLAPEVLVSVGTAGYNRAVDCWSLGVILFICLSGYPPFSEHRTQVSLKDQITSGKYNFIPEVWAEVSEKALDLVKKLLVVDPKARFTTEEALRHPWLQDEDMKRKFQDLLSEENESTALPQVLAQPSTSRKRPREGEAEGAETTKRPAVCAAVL
Protocol: Exemplary peptides were directly synthesized (immobilized) on a membrane and contacted with human Chk2 kinase. Specifically, oligo-peptides with all sequences predicted by the 3-dimensional model were directly synthesized on a membrane by using an auto-spot-peptide-synthesizer, Model ASP-22 2 (ABiMED, Germany). The amount of peptide was about 0.1 micro-mol/cm^2.
The membrane was incubated with 2% Gly-Gly in PBS for 2 hours (hr) at room temperature (RT). Then, they were washed three times with 0.1% Tween-P BS™. The “kination,” or “phosphorylation,” reaction was performed with a recombinant fusion protein Gst-Chk2 at a concentration of about 5 μg in 4 ml reaction buffer, 1 mM MgCl2, 2% Gly-Gly and γ-^33P-ATP in PBS at RT for 1 hr. After the reaction, the membrane was washed 5 times with RIPA (1% SDS, 1% NP-40, 100 mM NaCl) and analyzed with a Bass 2500™ image analyzer (Fuji, Japan).
The following Table 1 is a complete list of tested peptides and results of the in vitro phosphorylation by human Chk2 kinase assay.
The following example describes studies which identified exemplary G2 checkpoint-abrogating peptides of the invention. The following peptides of the invention were synthesized directly on membranes and tested in in vitro phosphorylation (“kination” assays, as described above.
These peptides were tested in in vitro kination reactions. The oligopeptides were used as phosphorylation substrates; added kinases are involved in the cell cycle G2 checkpoint. Thus, a substance that inhibits the kination reaction can be a cell cycle 62 checkpoint abrogator. For the detection of the phosphorylation status of substrates in this screening method, isotope-labeled ATP and anti-phospho-peptides antibody can be used.

[2] = system: histone H1 kinase activity; assay: Histone H1 kinase assay on lysates of treated Jurkat cells; assay type: cell-based, human; settings: FIG. 2B; bleomycin 10 μg/ml or hydroxyurea 100 μg/ml; 6 hr
Protocol: Histone H1 kinase assay. Ten million Jurkat cells were treated with hydroxyurea (100 μg/ml), bleomycin (10 μg/ml), or colchicine (5 μg/ml) with or without addition of TAT-S216A, TAT-S216 or TAT-Control (10 μM) for 6 hr. The cells were washed in cold PBS and lysed at 4° C. in 1 ml of buffer A (50 mM Tris pH 8, 2 mM DTT, 5 mM EDTA, 100 mM NaCl, 0.5% NP40, 20 mM Na3V04, 50 mM NaF, 4 μM Okadaic acid, 5 μg/ml aprotinin, 5 μg/ml pepstatin A and 5 μg/ml leupeptin.). Twenty microliter of p13^suc1 agarose beads (Upstate Biotechnology., Saranac, N.Y.) were added to the cleared lysates, incubated for 4 hr at 4° C., and washed five times with buffer A without 5 mM EDTA, 20 mM Na3V04, 50 mM NaF, 4 μM Okadaic acid. Histone HI kinase activity on the beads were analyzed by using Cdc2 kinase assay kit (Upstate Biotechnology) with [γ-^32P] ATP, followed by 12% SDS-PAGE electrophoresis, and autoradiographed to detect the phosphorylated Histone H1.
The cell cycle status of the cells treated with TAT-S216A or TAT-S216 upon the DNA damage-induced G2 arrest was analyzed by FACS analysis. Histone H1 kinase activities of theses cells were simultaneously monitored. […] Results are shown in FIG. 2: abrogation of DNA damage-induced G2 arrest by TAT-S216A and TAT-S216 peptides. FIG. 2A, FACS analysis of Jurkat cells treated with bleomycin and peptides. Cells were treated with bleomycin (10 μg/ml) with or without peptides (10 μM) for 20 hr. B, histone H1 kinase analysis. Cell lysates were prepared from the cells treated with the indicated reagent for 6 hr. Concentrations used were: hydroxyurea (HU), 100 μg/ml; bleomycin (Bleo), 10 μg/ml; colchicine, 5 μg/ml; TAT-S216A and TAT-S216, 10 μM. C, FACS analysis of colchicine -and peptide-treated cells. Jurkat cells were treated with colchicine (5 μg/ml) with or without peptide (10 μM) for 20 hr.

[3] = peptide synthesized on membrane (about 0.1 micro-mol/cm^2), Gst-Chk2 about 5 μg in 4 ml reaction buffer
[4] = peptide synthesized on membrane, about 0.1 micro-mol/cm^2, Gst-Chk2 about 5 μg in 4 ml

Molecule | in vitro phosphorylation by human Chk2 kinase (graded signal) [1, 3] | further results
LYRSPSHYENL | + | –
LYSSPSFWENL | + | –
LYSSPSMPENL | + | –
LYTSPSMFENL | ++ | –
LYTSPSNWENL | + | –
LYTSPSHYENL | + | –
LFTSPSYPENL | + | –
LYTSPSNPENL | + | –
LYSSPSMWENL | + | –
LYTSPSYWENL | ++ | –
LYRSPSYWENL | + | –
LYSSPSYWENL | + | –
L Y R S P S Y Y E N L (LYRSPSYYENL) | – | phosphorylation by human Chk2 kinase (in words) [1]: best phosphorylation substrates
1125 (WYRSPSMWENL) [compound 1125] | – | in vitro phosphorylation by human Chk2 kinase (graded signal) [1, 4]: ++
LYHSPSYPENL | + | –
LYRSPSYYENL | + | –
LYSSPSYFENL | + | –
LYHSPSYFENL | + | –
1130 (WYRSPSFWENL) [compound 1130] | – | in vitro phosphorylation by human Chk2 kinase (graded signal) [1, 4]: ++
1128 (WYRSPSFFENL) [compound 1128] | – | in vitro phosphorylation by human Chk2 kinase (graded signal) [1, 4]: ++
LYSSPSHWENL | ++ | –
NC(=O)NO [hydroxyurea, Hydroxyurea] | – | histone H1 kinase activity on treatment with drug alone [2]: decreased
LYSSPSYPENL | + | –
LYRSPSMPENL | + | –

Molecule | in vitro phosphorylation by human Chk2 kinase (graded signal) [1, 3] | further results
LYRSPSHWENL | + | –
LYTSPSMWENL | ++ | –
LYRSPSHPENL | + | –
1127 (WYRSPSFPENL) [compound 1127] | – | in vitro phosphorylation by human Chk2 kinase (graded signal) [1, 4]: ++
LYRSPSNWENL | + | –
LYSSPSFFENL | + | –
LYRSPSYFENL | + | –
1132 (WYRSPSYPENL) [compound 1132] | – | in vitro phosphorylation by human Chk2 kinase (graded signal) [1, 4]: ++
LYTSPSYFENL | ++ | –
LYTSPSMPENL | ++ | –
LYTSPSNFENL | + | –
LYSSPSHFENL | ++ | –
W Y T S P S Y F E N L (WYTSPSYFENL) | – | phosphorylation by human Chk2 kinase (in words) [1]: best phosphorylation substrates
LYSSPSFPENL | + | –
LYTSPSHPENL | + | –
LYTSPSMYENL | ++ | –
LYRSPSNPENL | + | –
LYTSPSNYENL | + | –
LYTSPSYPENL | ++ | –
LYSSPSMFENL | + | –
LYSSPSQPENL | + | –
LFTSPSYFENL | + | –
1212 (WYTSPSYPENL) [compound 1212] | – | in vitro phosphorylation by human Chk2 kinase (graded signal) [1, 4]: ++
LYTSPSFWENL | ++ | –

Molecule | in vitro phosphorylation by human Chk2 kinase (graded signal) [1, 3] | further results
LYSSPSHPENL | ++ | –
LYTSPSYYENL | +++ | –
LYRSPSNYENL | + | –
LYHSPSYWENL | + | –
LYTSPSHWENL | + | –
1129 (WYRSPSFYENL) [compound 1129] | – | in vitro phosphorylation by human Chk2 kinase (graded signal) [1, 4]: +++
LYTSPSFFENL | ++ | –
LYSSPSYYENL | + | –
1124 (WYRSPSMYENL) [compound 1124] | – | in vitro phosphorylation by human Chk2 kinase (graded signal) [1, 4]: ++
LYTSPSFYENL | ++ | –
LFTSPSYWENL | + | –
LYTSPSHFENL | + | –
LYHSPSYYENL | +++ | –
RYSLPPELSNM | + | phosphorylation signal by human Chk2 kinase (graded) [1]: +
LYSSPSMYENL | + | –
LYSSPSHYENL | ++ | –
LYSSPSQWENL | + | –
LYRSPSAMPENL | – | phosphorylation signal by human Chk2 kinase (graded) [1]: +
LYTSPSFPENL | ++ | –
LFTSPSYYENL | +++ | –
LYRSPSHFENL | + | –
1134 (WYRSPSYYENL) [compound 1134] | – | in vitro phosphorylation by human Chk2 kinase (graded signal) [1, 4]: ++
LYSSPSFYENL | + | –
